The results in this text go back to paper PMC12892918, “CoREST complex inhibition alters RNA splicing to promote neoantigen expression and enhance tumor immunity” (JCI Insight, 2025).

Usually Kd stands for the equilibrium constant for the complex coming apart.

For this assay, the target named is LSD1 (aa 171–852) and RCOR1 (aa 286–485) complex (truncated LC) (UniProt O60341 171-852; Q9UKL0 286-485). Description: MST; Cy5-labelled His-tag U2AF2 fragments mixed with serially diluted truncated LSD1/RCOR1. Conditions: both partners purified.

B1: His-tag U2AF2 fragment (aa 241–471), Cy5-labelled (domain or fragment)
chain: NPSVYVPGVVSTVVPDSAHKLFIGGLPNYLNDDQVKELLTSFGPLKAFNLVKDSATGLSKGYAFCEYVDINVTDQAIAGLNGMQLGDKKLLVQRASVGAKNATLVSPPSTINQTPVTLQVPGLMSSQVQMGGHPTEVLCLMNMVLPEELLDDEEYEEIVEDVRDECSKYGLVKSIEIPRPVDGVEVPGCGKIFVEFTSVFDCQKAMQGLTGRKFANRVVVTKYCDPDSYHR
modifications: Cy5 dye at lysine residues (reactive NHS-ester dye)
notes: U2AF2, aa 241-471, composed of RRM2 and UHM; also called U2AF2 241–471; Fluor-U2AF2
B1: binding was characterised by a dissociation constant (Kd) of 16 µM. This counts as double-digit micromolar.

B2: His-tag U2AF2 fragment (aa 85–471), Cy5-labelled (domain or fragment)
chain: KKKVRKYWDVPPPGFEHITPMQYKAMQAAGQIPATALLPTMTPDGLAVTPTPVPVVGSQMTRQARRLYVGNIPFGITEEAMMDFFNAQMRLGGLTQAPGNPVLAVQINQDKNFAFLEFRSVDETTQAMAFDGIIFQGQSLKIRRPHDYQPLPGMSENPSVYVPGVVSTVVPDSAHKLFIGGLPNYLNDDQVKELLTSFGPLKAFNLVKDSATGLSKGYAFCEYVDINVTDQAIAGLNGMQLGDKKLLVQRASVGAKNATLVSPPSTINQTPVTLQVPGLMSSQVQMGGHPTEVLCLMNMVLPEELLDDEEYEEIVEDVRDECSKYGLVKSIEIPRPVDGVEVPGCGKIFVEFTSVFDCQKAMQGLTGRKFANRVVVTKYCDPDSYHR
modifications: Cy5 dye at lysine residues (reactive NHS-ester dye)
notes: U2AF2, aa 85-471; also called U2AF2 85–471; Fluor-U2AF2
In turn, B2 came in with a Kd of 14 µM.
